In US20240392003A1 (NUMAB THERAPEUTICS, published 2024):
Where two headings read alike, the source gives them in different places.

B1: PRO2557 (bispecific antibody)
chain: AFELTQSPSSLSASVGDRVTITCQASESINSRLAWYQQKPGQPPKLLIYDASDLTSGVPSRFSGSGSGTDFTLTISSLQPEDFATYYCQGYGGSSTTTFGCGTKLTVLGGGGGSEVQLVESGGGLVQPGGSLRLSCAASGFSLSSYDMSWVRQAPGKGLAWIGASYASGPTYYASWAKGRFTISRDNSKNTVYLQMNSLRAEDTATYFCARGGWTGTSHSNIWGQGTLVTVSSGGGGSGGGGSGGGGSGGGGSDIQMTQSPSSLSASVGDRVTITCQSSQSVFSNNYLAWFQQKPGQSPKRLIYSASTLASGVPSRFSGSGSGTDFTLTISSLQPEDFATYYCLGSYACSSADCYVFGTGTKVTVLGGGGGSEVQLVESGGGLVQPGGSLRLSCAASGFSLSSYAMNWVRQAPGKCLEWIGHINAGDIAYYATWAKGRFTISRDNSKNTVYLQMNSLRAEDTAVYFCARGAGGFSTGPFKLWGQGTLVTVSSGGGGSGGGGSAQQLTQSPSSLSASVGDRVTITCQASQNVWNNNYLSWFQQKPGKPPKLLIVTASTLASGVSSRFSGSGSGTDFTLTISSLQPEDFATYYCAGGFSGEIRAFGCGTKVTVLGGGGGSGGGGSGGGGSGGGGSQSQLVESGGGLVQPGGSLRLSCAVSGIDLSRNAMSWVRQAPGKCLEWIGIILTSGSTYYASWAKGRFTISKTSTTLDLQMNSLRAEDTAVYFCVRGIASSSLKSFWGQGTLVTVSS
notes: trispecific anti-ROR1 x hSA x CD3 scMATCH3, single chain; also called 19-04-A10-sc06 scDb-o/28-21-D09-sc04 scDb-i/55-39-G02-sc06-scFv
B2: PRO2510 (bispecific antibody)
chain: AFELTQSPSSLSASVGDRVTITCQASESINSRLAWYQQKPGQPPKLLIYDASDLTSGVPSRFSGSGSGTDFTLTISSLQPEDFATYYCQGYGGSSTTTFGCGTKLTVLGGGGGSEVQLVESGGGLVQPGGSLRLSCAASGFSLSSYDMSWVRQAPGKGLAWIGASYASGPTYYASWAKGRFTISRDNSKNTVYLQMNSLRAEDTATYFCARGGWTGTSHSNIWGQGTLVTVSSGGGGSGGGGSGGGGSGGGGSDIQMTQSPSSLSASVGDRVTITCQSSQSVFSNNYLAWFQQKPGQSPKRLIYSASTLASGVPSRFSGSGSGTDFTLTISSLQPEDFATYYCLGSYACSSADCYVFGTGTKVTVLGGGGGSEVQLVESGGGLVQPGGSLRLSCAASGFSLSSYAMNWVRQAPGKCLEWIGHINAGDIAYYATWAKGRFTISRDNSKNTVYLQMNSLRAEDTAVYFCARGAGGFSTGPFKLWGQGTLVTVSSGGGGSGGGGSAQQLTQSPSSLSASVGDRVTITCQASQNVWNNNYLSWFQQKPGKPPKLLIVTASTLASGVSSRFSGSGSGTDFTLTISSLQPEDFATYYCAGGFSGEIRAFGCGTKVTVLGGGGGSGGGGSGGGGSGGGGSQSQLVESGGGLVQPGGSLRLSCAVSGLSLSRNAMSWVRQAPGKCLEWIGIILTSGSTYYASWAKGRFTISKDNSKNTVYLQMNSLRAEDTAVYFCVRGIASSSLKSFWGQGTLVTVSS
notes: trispecific anti-ROR1 x hSA x CD3 scMATCH3, single chain; also called 19-04-A10-sc06 scDb-o/28-21-D09-sc04 scDb-i/55-39-G02-sc05-scFv
B3: PRO2509 (bispecific antibody)
chain: AFELTQSPSSLSASVGDRVTITCQASESINSRLAWYQQKPGQPPKLLIYDASDLTSGVPSRFSGSGSGTDFTLTISSLQPEDFATYYCQGYGGSSTTTFGCGTKLTVLGGGGGSEVQLVESGGGLVQPGGSLRLSCAASGFSLSSYDMSWVRQAPGKGLAWIGASYASGPTYYASWAKGRFTISRDNSKNTVYLQMNSLRAEDTATYFCARGGWTGTSHSNIWGQGTLVTVSSGGGGSGGGGSGGGGSGGGGSDIQMTQSPSSLSASVGDRVTITCQSSQSVFSNNYLAWFQQKPGQSPKRLIYSASTLASGVPSRFSGSGSGTDFTLTISSLQPEDFATYYCLGSYACSSADCYVFGTGTKVTVLGGGGGSEVQLVESGGGLVQPGGSLRLSCAASGFSLSSYAMNWVRQAPGKCLEWIGHINAGDIAYYATWAKGRFTISRDNSKNTVYLQMNSLRAEDTAVYFCARGAGGFSTGPFKLWGQGTLVTVSSGGGGSGGGGSAQQLTQSPSSLSASVGDRVTITCQASQNVWNNNYLSWFQQKPGKPPKLLIVTASTLASGVSSRFSGSGSGTDFTLTISSLQPEDFATYYCAGGFSGEIRAFGTGTKVTVLGGGGGSGGGGSGGGGSGGGGSQSQLVESGGGLVQPGGSLRLSCAVSGLSLSRNAMSWVRQAPGKGLEWIGIILTSGSTYYASWAKGRFTISKDNSKNTVYLQMNSLRAEDTAVYFCVRGIASSSLKSFWGQGTLVTVSS
notes: trispecific anti-ROR1 x hSA x CD3 scMATCH3, single chain; also called 19-04-A10-sc06 scDb-o/28-21-D09-sc04 scDb-i/55-39-G02-sc02-scFv
B4: PRO2507 (bispecific antibody)
chain: AFELTQSPSSLSASVGDRVTITCQASESINSRLAWYQQKPGQPPKLLIYDASDLTSGVPSRFSGSGSGTDFTLTISSLQPEDFATYYCQGYGGSSTTTFGCGTKLTVLGGGGGSEVQLVESGGGLVQPGGSLRLSCAASGFSLSSYDMSWVRQAPGKGLAWIGASYASGPTYYASWAKGRFTISRDNSKNTVYLQMNSLRAEDTATYFCARGGWTGTSHSNIWGQGTLVTVSSGGGGSGGGGSGGGGSGGGGSDIQMTQSPSSLSASVGDRVTITCQSSQSVFSNNYLAWFQQKPGQSPKRLIYSASTLASGVPSRFSGSGSGTDFTLTISSLQPEDFATYYCLGSYACSSADCYVFGTGTKVTVLGGGGGSEVQLVESGGGLVQPGGSLRLSCAASGFSLSSYAMNWVRQAPGKCLEWIGHINAGDIAYYATWAKGRFTISRDNSKNTVYLQMNSLRAEDTAVYFCARGAGGFSTGPFKLWGQGTLVTVSSGGGGSGGGGSDVQMTQSPSSLSASVGDRVTITCRASENIYSGLAWYQQKPGKPPKLLIYRASTLASGVSSRFSGSGSGTDFTLTISSLQPEDFATYYCQGGYYSSSSTYIAFGTGTKVTVLGGGGGSGGGGSGGGGSGGGGSQSQVVESGGGLVQPGGSLRLSCAVSGFDLSSYAVSWVRQAPGKGLEWIGIIYPRANTYYASWAKGRFTISKDNSKNTVYLQMNSLRAEDTAVYFCARDRYDSGAYLYTTYFNLWGQGTLVTVSS
notes: trispecific anti-ROR1 x hSA x CD3 scMATCH3, single chain; also called 19-04-A10-sc06 scDb-o/28-21-D09-sc04 scDb-i/55-38-D07-sc02-scFv

Key:
[1] = target: T1, human ROR1 expressed on cells (human, UniProt Q01973 30-937); assay: cell-based or functional assay
[2] = target: T1, human ROR1 expressed on cells; assay: cell-based or functional assay; remark: listed apart in the source
[3] = target: T1, human ROR1 expressed on cells; assay: cell-based or functional assay; remark: listed apart in the source
[4] = target: T1, human ROR1 expressed on cells; assay: cell-based or functional assay; remark: listed apart in the source
[5] = target: T2, recombinant human ROR1 protein (Fc-Tag, Acro Biosystems RO1-H5250) (human, UniProt Q01973 30-406); assay: SPR; hROR1-Fc immobilized;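 also: biacore T200 SPR with ROR1 covalently coupled to a CM5 chip, analyte titration series, apparent rate and equilibrium constants fitted with a 1:1 Langmuir model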
T2 construct: Bought; also called hROR1; recombinant human ROR1 ECD; not shown: Fc tag

[6] = target: T3, recombinant human CD3 epsilon extra-cellular domain protein (His-Tag, SinoBiological) (human, UniProt P07766 23-126); assay: SPR; hCD3ε immobilized, two-state fit;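 also: biacore T200 measurement with target covalently coupled to a CM5 chip, antibody constructs injected as analyte over a concentration series, constants derived in Biacore Evaluation software 3.2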
T3 construct: extracellular domain; Bought; also called hCD3ε; human CD3ε; not shown: His tag

[7] = target: T3, recombinant human CD3 epsilon …; assay: SPR; hCD3ε immobilized, two-state fit (ka1)
Experimental: Binding kinetics (including affinity) of the nine selected scMATCH3 molecules to recombinant human CD3 epsilon extra-cellular domain protein (hCD3ε; His-Tag, SinoBiological) were determined by SPR analysis on a T200 device (Biacore, Cytiva). Recombinant hCD3ε molecules were covalently immobilized to a carboxymethylated dextran surface (CM5 sensorchip; Biacore, Cytiva) and a titration series of each MATCH3 molecule was injected as analyte. After each analyte injection-cycle, every flow channel on the sensor chip was regenerated (Glycine, pH 2.0 and 3 M MgCl₂), and a new concentration of MATCH3 molecule was injected. […] The apparent dissociation (kₐ₁) and association (kₐ₁) rate constants, the second reaction constants (kₐ₂ and kd) and the apparent dissociation equilibrium constant (KD) were calculated with the Biacore analysis software (Biacore Evaluation software Version 3.2, Cytiva) using a two-state binding model, and quality of the fits was monitored based on relative Chi2. The binding level was calculated as the maximum stability binding achieved normalized to the theoretical Rmax.

[8] = target: T3, recombinant human CD3 epsilon …; assay: SPR; hCD3ε immobilized, two-state fit (kd1)
[9] = target: T1, human ROR1 expressed on cells; assay: flow cytometry, MDA-MB-231 cells, 1 mg/ml hSA
Experimental: After incubation at 4° C. for 1 h in presence of 1 mg/mi of human serum albumin (hSA), plates were washed and incubated with specific detection antibodies.
The binding of anti-ROR1xhSAxCD3 scMATCH3 molecules to plasma membrane human ROR1 was assessed by flow cytometry.

Row | Binder | EC50 (nM) Cytotoxicity (MDA-MB-231) [1] | Avg. % max. lysis (JIMT-1) [2] | Avg. % max. lysis (MDA-MB-231) [2] | Avg. % max. lysis (SKOV3) [2] | Avg. EC50 (nM) CD8 T cell act. (MDA-MB-231) [2] | Avg. EC50 (nM) CD8 T cell act. (SKOV3) [2] | Avg. EC50 (nM) Cytotoxicity (JIMT-1) [2] | Avg. EC50 (nM) Cytotoxicity (MDA-MB-231) [2] | Avg. EC50 (nM) Cytotoxicity (SKOV3) [2] | Avg. % max. CD8 T cell act. (JIMT-1) [3] | Kd [5] | koff [5] | kon [5] | Kd [6] | ka2 [6] | kd2 [6] | kon [7] | koff [8] | EC50 [9] | Rel. maximum binding (MFIscMATCH3/MFIPRO2213) [9] | further results
1 | B1 | 3.1 nM | 83% | 78.2% | 88% | 0.52 nM | 1.2 nM | 3.4 nM | 0.74 nM | 1.3 nM | 48.7% | 1.6 nM | 0.00067 s⁻¹ | 420000 M⁻¹ s⁻¹ | 5.5 nM | 0.00042 s⁻¹ | 0.0014 s⁻¹ | 430000 M⁻¹ s⁻¹ | 0.0031 s⁻¹ | 3.27 nM | 2.43 | Avg. % max. CD8 T cell act. (MDA-MB-231) [3]: 65.3%; Avg. % max. CD8 T cell act. (SKOV3) [3]: 81.5%; Avg. EC50 (nM) CD8 T cell act. (JIMT-1) [3]: 5.4 nM; Avg. EC50 (nM) CD8 T cell act. (MDA-MB-231) [3]: 0.52 nM; Avg. EC50 (nM) CD8 T cell act. (SKOV3) [3]: 1.2 nM; Avg. % max. CD4 T cell act. (JIMT-1) [4]: 69.3%; Avg. % max. CD4 T cell act. (MDA-MB-231) [4]: 77.7%; Avg. % max. CD4 T cell act. (SKOV3) [4]: 87.5%; Avg. EC50 (nM) CD4 T cell act. (JIMT-1) [4]: 3.3 nM; Avg. EC50 (nM) CD4 T cell act. (MDA-MB-231) [4]: 0.2 nM; Avg. EC50 (nM) CD4 T cell act. (SKOV3) [4]: 0.55 nM
2 | B2 | 0.43 nM | 72.1% | 65.5% | 83.1% | 0.087 nM | 0.19 nM | 1.1 nM | 0.14 nM | 0.25 nM | 47.6% | 0.46 nM | 0.0006 s⁻¹ | 1.3e+06 M⁻¹ s⁻¹ | 2.1 nM | 0.0013 s⁻¹ | 0.002 s⁻¹ | 1e+06 M⁻¹ s⁻¹ | 0.0036 s⁻¹ | 1.36 nM | 2.61 | Avg. % max. CD8 T cell act. (MDA-MB-231) [3]: 70.4%; Avg. % max. CD8 T cell act. (SKOV3) [3]: 79.3%; Avg. EC50 (nM) CD8 T cell act. (JIMT-1) [3]: 1.1 nM; Avg. EC50 (nM) CD8 T cell act. (MDA-MB-231) [3]: 0.087 nM; Avg. EC50 (nM) CD8 T cell act. (SKOV3) [3]: 0.19 nM; Avg. % max. CD4 T cell act. (JIMT-1) [4]: 68%; Avg. % max. CD4 T cell act. (MDA-MB-231) [4]: 82%; Avg. % max. CD4 T cell act. (SKOV3) [4]: 87.3%; Avg. EC50 (nM) CD4 T cell act. (JIMT-1) [4]: 0.8 nM; Avg. EC50 (nM) CD4 T cell act. (MDA-MB-231) [4]: 0.036 nM; Avg. EC50 (nM) CD4 T cell act. (SKOV3) [4]: 0.13 nM
3 | B3 | 0.31 nM |  |  |  |  |  |  |  |  |  | 0.36 nM | 0.00047 s⁻¹ | 1.3e+06 M⁻¹ s⁻¹ | 2.1 nM | 0.00096 s⁻¹ | 0.0016 s⁻¹ | 1e+06 M⁻¹ s⁻¹ | 0.0034 s⁻¹ | 1.12 nM | 2.57 | 
4 | B4 | 1 nM | 63.9% | 64.6% | 79.1% | 0.36 nM | 0.34 nM | 2 nM | 0.47 nM | 0.42 nM | 40.8% | < 0.12 nM | < 1e-05 s⁻¹ | 82000 M⁻¹ s⁻¹ | 9.4 nM | 0.0069 s⁻¹ | 0.0078 s⁻¹ | 340000 M⁻¹ s⁻¹ | 0.006 s⁻¹ | 26.9 nM | 2.88 | Avg. % max. CD8 T cell act. (MDA-MB-231) [3]: 68%; Avg. % max. CD8 T cell act. (SKOV3) [3]: 64.3%; Avg. EC50 (nM) CD8 T cell act. (JIMT-1) [3]: 2.9 nM; Avg. EC50 (nM) CD8 T cell act. (MDA-MB-231) [3]: 0.36 nM; Avg. EC50 (nM) CD8 T cell act. (SKOV3) [3]: 0.34 nM; Avg. % max. CD4 T cell act. (JIMT-1) [4]: 63.2%; Avg. % max. CD4 T cell act. (MDA-MB-231) [4]: 81.8%; Avg. % max. CD4 T cell act. (SKOV3) [4]: 83.3%; Avg. EC50 (nM) CD4 T cell act. (JIMT-1) [4]: 2.4 nM; Avg. EC50 (nM) CD4 T cell act. (MDA-MB-231) [4]: 0.14 nM; Avg. EC50 (nM) CD4 T cell act. (SKOV3) [4]: 0.22 nM
